Measured values taken from the supplement of paper PMC7877785.
± gives the uncertainty stated by the source.

Experiment: self-splicing fitness, log relative to wild type (ln ratio); higher = more splicing; Tetrahymena group I intron in knt gene, E. coli kanamycin selection, DiMSum; sequences stand for … in CUCUCU…GGAGGGAAAAGUUAUCAGGCAUGCACCUGGUAGCUAGUCUUUAAACCAAUAGAUUGCAUCGGUUUAAAAGGCAAGACCGUCAAAUUGCGGGAAAGGGGUCAACAGCCGUUCAGUACCAAGUCUCAGGGGAAACUUUGAGAUGGCCUUGCAAAGGGUAUGGUAAUAAGCUGACGGACAUGGUCCUAACCACGCAGCCAAGUCCUAAGUCAACAGAUCUUCUGUUGAUAUGGAUGCAGUUCACAGACUAAAUGUCGGUCGGGGAAGAUGUAUUCUUCUCAUAAGAUAUAGUCGGACCUCUCCUUAAUGGGAGCUAGCGGAUGAAGUGAUGCAACACUGGAGCCGCUGGGAACUAAUUUGUAUGCGAAAGUAUAUUGAUUAGUUUUGGAGUACUCGUGGUCG
Method in brief: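 Six replicate transformations of E. coli BL21(DE3) with a pET-22b(+) library were grown overnight at 37°C or 30°C. The library randomised all eight P1ex-region intron nucleotides, the intron lying in the knt kanamycin-resistance gene, and plates were LB agar with or without 25 μg/mL kanamycin plus 100 μg/mL carbenicillin, 50 μM IPTG and 0.2% rhamnose. Pooled colonies were amplicon-sequenced on an Illumina HiSeq 2500, and fitness is the DiMSum error-weighted combination of wild-type-normalised replicate fold changes, kanamycin versus none.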

Row | Sequence | self-splicing fitness (ln) (30 °C) | self-splicing fitness (ln) (37 °C)
1 | CACAAGCAAUAUUACGCGUG | -2.76 ± 0.16 | -2.24 ± 0.22
2 | CACAAGCAAUAUUACGGCAG | -0.587 ± 0.051 | -0.0731 ± 0.064
3 | CACAAGCAAUAUUACGGCGC | -3.59 ± 0.17 | -1.07 ± 0.12
4 | CACAAGCAAUAUUACGGGGC | -3.54 ± 0.17 | -2.54 ± 0.18
5 | CACAAGCAAUAUUACGGUGG | -1.99 ± 0.05 | -1.06 ± 0.062
6 | CACAAGCAAUAUUACGUCCC | -2.13 ± 0.33 | -1.07 ± 0.46
7 | CACAAGCAAUAUUACGUCCU | -1.84 ± 0.12 | -1.05 ± 0.15
8 | CACAAGCAAUAUUACGUGUC | -3.86 ± 0.15 | -1.63 ± 0.12
9 | CACAAGCAAUAUUACGUGUU | -3.95 ± 0.12 | -3.28 ± 0.13
10 | CACAAGCAAUAUUACGUUGG | -2.5 ± 0.091 | -1.76 ± 0.099
11 | CACCAGCAAUAUUACGAAUU | -3.18 ± 0.15 | -2.92 ± 0.17
12 | CACCAGCAAUAUUACGACUC | -3.42 ± 0.21 | -1.62 ± 0.18
13 | CACCAGCAAUAUUACGAGAG | -0.95 ± 0.054 | -0.673 ± 0.069
14 | CACCAGCAAUAUUACGAUGG | -1.58 ± 0.06 | -0.874 ± 0.079
15 | CACCAGCAAUAUUACGCAUC | -2.88 ± 0.13 | -3.35 ± 0.23
16 | CACCAGCAAUAUUACGCGAA | -4.18 ± 0.21 | -2.04 ± 0.12
17 | CACCAGCAAUAUUACGCGAG | -0.893 ± 0.057 | -0.594 ± 0.063
18 | CACCAGCAAUAUUACGCGCA | -2.03 ± 0.084 | -1.51 ± 0.085
19 | CACCAGCAAUAUUACGCUAG | -1.49 ± 0.068 | -0.153 ± 0.079
20 | CACCAGCAAUAUUACGGAAC | -4.01 ± 0.17 | -2.06 ± 0.14
21 | CACCAGCAAUAUUACGGGCU | -4.86 ± 0.2 | -2.8 ± 0.16
22 | CACCAGCAAUAUUACGGUGA | -2.61 ± 0.095 | -3.26 ± 0.15
23 | CACCAGCAAUAUUACGGUGC | -3.89 ± 0.21 | -1.81 ± 0.15
24 | CACCAGCAAUAUUACGUAGG | -0.739 ± 0.05 | -0.0785 ± 0.074

Row | Sequence | self-splicing fitness (ln) (30 °C) | self-splicing fitness (ln) (37 °C)
25 | CACCAGCAAUAUUACGUCUU | -3.59 ± 0.12 | -2.64 ± 0.15
26 | CACCAGCAAUAUUACGUGGC | -3.65 ± 0.17 | -2.98 ± 0.21
27 | CACCAGCAAUAUUACGUGGG | -3.41 ± 0.095 | -3.03 ± 0.12
28 | CACGAGCAAUAUUACGAAAA | -2.14 ± 0.17 | -2.66 ± 0.25
29 | CACGAGCAAUAUUACGAAAU | -2.18 ± 0.19 | -2.81 ± 0.29
30 | CACGAGCAAUAUUACGAAUG | -2.66 ± 0.11 | -2.17 ± 0.16
31 | CACGAGCAAUAUUACGACAG | -1.71 ± 0.078 | -0.496 ± 0.095
32 | CACGAGCAAUAUUACGAGAG | -3.14 ± 0.15 | -2.18 ± 0.18
33 | CACGAGCAAUAUUACGCAAU | -4.23 ± 0.19 | -2.99 ± 0.16
34 | CACGAGCAAUAUUACGCCAU | -2.82 ± 0.27 | -2.55 ± 0.33
35 | CACGAGCAAUAUUACGCUAG | – | -2.4 ± 0.28
36 | CACGAGCAAUAUUACGCUCA | -2.85 ± 0.45 | -2.42 ± 0.27
37 | CACGAGCAAUAUUACGGAAG | -3.54 ± 0.21 | -2.32 ± 0.2
38 | CACGAGCAAUAUUACGGAGC | -2.87 ± 0.44 | -0.87 ± 0.19
39 | CACGAGCAAUAUUACGGAGG | -4.5 ± 0.36 | -2.75 ± 0.28
40 | CACGAGCAAUAUUACGGAGU | -4.82 ± 0.32 | -3.69 ± 0.24
41 | CACGAGCAAUAUUACGGAUG | -3.35 ± 0.16 | -2.47 ± 0.16
42 | CACGAGCAAUAUUACGGCAU | -3.23 ± 0.2 | -3.52 ± 0.33
43 | CACGAGCAAUAUUACGGUUU | -3.79 ± 0.33 | -2.93 ± 0.36
44 | CACGAGCAAUAUUACGUACU | -2.77 ± 0.16 | -2.54 ± 0.27
45 | CACGAGCAAUAUUACGUGCC | – | -3.4 ± 0.28
46 | CACGAGCAAUAUUACGUUAA | -3.25 ± 0.22 | -2.86 ± 0.22
47 | CACUAGCAAUAUUACGAAAU | – | -1.38 ± 0.4
48 | CACUAGCAAUAUUACGAAUU | -2.88 ± 0.19 | -2.77 ± 0.23

Row | Sequence | self-splicing fitness (ln) (30 °C) | self-splicing fitness (ln) (37 °C)
49 | CACUAGCAAUAUUACGACGA | -2.06 ± 0.16 | -1.16 ± 0.17
50 | CACUAGCAAUAUUACGACGG | -0.0504 ± 0.083 | -0.117 ± 0.082
51 | CACUAGCAAUAUUACGACUG | -0.3 ± 0.053 | -0.0818 ± 0.071
52 | CACUAGCAAUAUUACGACUU | -2.29 ± 0.15 | -0.517 ± 0.12
53 | CACUAGCAAUAUUACGAGUA | -1.34 ± 0.096 | -0.6 ± 0.076
54 | CACUAGCAAUAUUACGAUAA | -3.35 ± 0.2 | -1.59 ± 0.15
55 | CACUAGCAAUAUUACGCGGA | -3.19 ± 0.25 | -1.85 ± 0.18
56 | CACUAGCAAUAUUACGGAAA | -1.99 ± 0.42 | -1.42 ± 0.5
57 | CACUAGCAAUAUUACGGACU | -2.87 ± 0.18 | -1.13 ± 0.14
58 | CACUAGCAAUAUUACGGAUG | -2.42 ± 0.083 | -1.39 ± 0.079
59 | CACUAGCAAUAUUACGGUCA | -0.522 ± 0.092 | -0.198 ± 0.12
60 | CACUAGCAAUAUUACGUAGC | -3.47 ± 0.19 | -2.94 ± 0.23
61 | CACUAGCAAUAUUACGUCAU | -5.15 ± 0.41 | -2.79 ± 0.23
62 | CACUAGCAAUAUUACGUCCA | -2.87 ± 0.22 | -1.31 ± 0.16
63 | CACUAGCAAUAUUACGUCGU | -3.39 ± 0.11 | -1.76 ± 0.094
64 | CACUAGCAAUAUUACGUCUU | -3.77 ± 0.3 | -2.75 ± 0.26
65 | CACUAGCAAUAUUACGUUGA | -3.56 ± 0.2 | -2.24 ± 0.16
66 | CAGAAGCAAUAUUACGAAAA | -4.31 ± 0.46 | -2.65 ± 0.21
67 | CAGAAGCAAUAUUACGAAAG | -1.29 ± 0.11 | -0.392 ± 0.12
68 | CAGAAGCAAUAUUACGAACU | -2.12 ± 0.13 | -1.72 ± 0.17
69 | CAGAAGCAAUAUUACGACAG | -0.805 ± 0.15 | -0.248 ± 0.23
70 | CAGAAGCAAUAUUACGAGUA | -3.2 ± 0.29 | -1.66 ± 0.22
71 | CAGAAGCAAUAUUACGAUCC | -2.81 ± 0.16 | -1.93 ± 0.32
72 | CAGAAGCAAUAUUACGCAAC | – | -2.39 ± 0.33

Row | Sequence | self-splicing fitness (ln) (30 °C) | self-splicing fitness (ln) (37 °C)
73 | CAGAAGCAAUAUUACGCAAU | -4.46 ± 0.42 | -2.79 ± 0.24
74 | CAGAAGCAAUAUUACGCGCG | -0.373 ± 0.17 | 0.0448 ± 0.29
75 | CAGAAGCAAUAUUACGCGUU | -3.09 ± 0.17 | -3.61 ± 0.29
76 | CAGAAGCAAUAUUACGGAGU | -3.56 ± 0.28 | -3.14 ± 0.4
77 | CAGAAGCAAUAUUACGGAUC | -1.26 ± 0.11 | -2.62 ± 0.17
78 | CAGAAGCAAUAUUACGGGUG | -0.824 ± 0.064 | -0.429 ± 0.08
79 | CAGAAGCAAUAUUACGGUCG | -0.112 ± 0.075 | 0.395 ± 0.11
80 | CAGAAGCAAUAUUACGUAAA | -4.01 ± 0.31 | -1.73 ± 0.16
81 | CAGAAGCAAUAUUACGUAAC | -3.85 ± 0.27 | -2.26 ± 0.32
82 | CAGAAGCAAUAUUACGUCCG | 0.0183 ± 0.11 | -0.0354 ± 0.13
83 | CAGAAGCAAUAUUACGUCCU | -1.94 ± 0.18 | -0.858 ± 0.16
84 | CAGAAGCAAUAUUACGUGAC | -3 ± 0.22 | -2.18 ± 0.21
85 | CAGAAGCAAUAUUACGUGAU | -2.97 ± 0.14 | -1.26 ± 0.11
86 | CAGAAGCAAUAUUACGUGGC | -3.7 ± 0.16 | -2.15 ± 0.15
87 | CAGAAGCAAUAUUACGUUCU | -2.75 ± 0.11 | -1.88 ± 0.1
88 | CAGAAGCAAUAUUACGUUUC | -3.38 ± 0.29 | -2.12 ± 0.23
89 | CAGCAGCAAUAUUACGAAGU | -2.46 ± 0.14 | -2.03 ± 0.24
90 | CAGCAGCAAUAUUACGACAC | -2.83 ± 0.23 | -2.45 ± 0.26
91 | CAGCAGCAAUAUUACGACGG | -0.183 ± 0.064 | 0.472 ± 0.1
92 | CAGCAGCAAUAUUACGACUC | -0.922 ± 0.091 | -0.00599 ± 0.14
93 | CAGCAGCAAUAUUACGAGUG | -1.54 ± 0.056 | -0.155 ± 0.074
94 | CAGCAGCAAUAUUACGAUGC | -4.05 ± 0.28 | -2.89 ± 0.34
95 | CAGCAGCAAUAUUACGAUGG | -0.264 ± 0.07 | 0.177 ± 0.092
96 | CAGCAGCAAUAUUACGCAGG | -2.56 ± 0.12 | -0.864 ± 0.11
